Laboratory results: patent US20030166872A1 (APPLIED MOLECULAR EVOLUTION, published 2003)
Blank lines part the entries; values can stand above or below the binder they belong to.

What was measured:
[1] = target: T1, integrin αVβ3 (human), P06756; assay: SPR (BIAcore)
T1 chain 1: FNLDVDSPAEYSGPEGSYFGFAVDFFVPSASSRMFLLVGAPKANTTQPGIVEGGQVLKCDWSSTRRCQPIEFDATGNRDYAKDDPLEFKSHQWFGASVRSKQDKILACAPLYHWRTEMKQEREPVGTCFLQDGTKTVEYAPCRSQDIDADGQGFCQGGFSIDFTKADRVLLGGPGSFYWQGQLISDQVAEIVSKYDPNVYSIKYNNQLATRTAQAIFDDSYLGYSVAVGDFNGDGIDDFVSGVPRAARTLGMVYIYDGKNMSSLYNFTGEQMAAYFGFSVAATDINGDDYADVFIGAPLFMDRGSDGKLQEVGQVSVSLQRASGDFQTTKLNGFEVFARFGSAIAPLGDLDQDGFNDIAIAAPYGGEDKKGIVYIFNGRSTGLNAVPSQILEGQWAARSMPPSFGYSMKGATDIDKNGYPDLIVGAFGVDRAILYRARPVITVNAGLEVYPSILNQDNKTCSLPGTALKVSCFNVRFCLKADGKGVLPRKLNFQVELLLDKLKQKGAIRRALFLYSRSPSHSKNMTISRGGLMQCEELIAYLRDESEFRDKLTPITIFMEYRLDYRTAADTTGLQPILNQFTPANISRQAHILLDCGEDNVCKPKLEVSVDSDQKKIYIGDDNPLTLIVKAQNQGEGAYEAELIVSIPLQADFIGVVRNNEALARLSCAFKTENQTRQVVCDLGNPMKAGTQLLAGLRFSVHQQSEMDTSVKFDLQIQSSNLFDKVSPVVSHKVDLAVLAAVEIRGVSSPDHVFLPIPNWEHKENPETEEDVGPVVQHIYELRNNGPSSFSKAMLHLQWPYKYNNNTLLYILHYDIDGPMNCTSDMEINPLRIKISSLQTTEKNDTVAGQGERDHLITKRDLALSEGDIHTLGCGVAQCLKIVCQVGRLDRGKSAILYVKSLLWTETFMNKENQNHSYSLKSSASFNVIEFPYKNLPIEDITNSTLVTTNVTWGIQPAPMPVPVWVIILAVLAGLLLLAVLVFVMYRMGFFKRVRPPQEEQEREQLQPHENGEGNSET
T1 chain 2: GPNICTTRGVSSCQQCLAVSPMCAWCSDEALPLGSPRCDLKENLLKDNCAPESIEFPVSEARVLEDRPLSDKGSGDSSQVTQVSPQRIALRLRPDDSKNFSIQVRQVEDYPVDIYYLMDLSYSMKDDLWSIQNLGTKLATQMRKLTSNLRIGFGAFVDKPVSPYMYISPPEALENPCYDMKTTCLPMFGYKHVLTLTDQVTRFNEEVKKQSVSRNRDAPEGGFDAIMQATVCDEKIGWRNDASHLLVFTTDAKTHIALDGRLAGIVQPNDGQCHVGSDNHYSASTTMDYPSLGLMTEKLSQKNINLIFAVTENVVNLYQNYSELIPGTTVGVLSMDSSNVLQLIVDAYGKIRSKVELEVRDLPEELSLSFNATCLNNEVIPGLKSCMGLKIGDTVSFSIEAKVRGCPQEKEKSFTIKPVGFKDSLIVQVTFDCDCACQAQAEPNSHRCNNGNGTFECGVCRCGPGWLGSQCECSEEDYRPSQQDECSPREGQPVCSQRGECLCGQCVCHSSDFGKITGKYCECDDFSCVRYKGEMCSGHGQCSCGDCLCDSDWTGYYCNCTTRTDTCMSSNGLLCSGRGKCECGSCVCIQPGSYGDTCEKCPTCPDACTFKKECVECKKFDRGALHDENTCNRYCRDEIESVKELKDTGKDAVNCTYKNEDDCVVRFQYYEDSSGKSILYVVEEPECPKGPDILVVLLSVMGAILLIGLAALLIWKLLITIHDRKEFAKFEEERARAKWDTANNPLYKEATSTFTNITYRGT

[2] = target: T1, integrin αVβ3 (human), P06756; assay: SPR (BIAcore), ratio of Kd
[3] = target: T1, integrin αVβ3 (human), P06756; assay: SPR (BIAcore), Fab over immobilized αVβ3
integrin αVβ3 [4] = target: T2, integrin αVβ3 (human, UniProt P06756 31-1048; P05106 27-788); assay: ELISA titration of Fab on immobilized αVβ3
T2 construct: mature; biotinylated in capture lift and capture ELISA; also on M21 melanoma cells in some assays; also called vitronectin receptor; αVβ3 receptor
Method: For ELISA titration of Fab on immobilized αVβ₃ and the related integrins αVβ₅ and αIIbβ₃, Immulon II microtiter plates were coated with 1 μg/ml purified receptor in 20 mM Tris, pH 7.4, 150 mM NaCl, 2 mM CaCl, 1 mM MgCl₂, 1 mM MnCl₂, washed once, and blocked in 3% BSA in 50 mM Tris, pH 7.4, 100 mM NaCl, 2 mM CaCl₂, 1 mM MgCl₂ for 1 h at 25° C. […] Just prior to use, the plates were washed two times and were then incubated 1 h at 25° C. with various dilutions of Fab. […] All dilutions and washes were in 50 mM Tris-HCl, pH 7.4, 100 mM NaCl, 2 mM CaCl₂, and 1 mM MgCl₂.

integrin αVβ3 [5] = target: T2, integrin αVβ3; assay: SPR (BIAcore)
integrin αVβ3 [6] = target: T2, integrin αVβ3; assay: inhibition of binding of 0.1 µg/ml biotinylated fibrinogen to immobilized αVβ3, 3 h at 37 °C, detection with NeutrAvidin alkaline phosphatase
integrin αVβ3 [7] = target: T2, integrin αVβ3; assay: SPR (BIACORE), as in Example VI
Method: The affinities of select variants were further characterized by utilizing surface plasmon resonance (BIAcore) to measure the association and dissociation rates of purified Fab with immobilized αVβ₃. […] To obtain association rate constants (kₒₙ), the binding rate at five different Fab concentrations, ranging from 5-40 μg/ml in 50 mM Tris-HCl, pH 7.4, 100 mM NaCl, 2 mM CaCl₂, and 1 mM MgCl₂, was determined at a flow rate of 10 μl/min. Dissociation rate constants (koff) were the average of five measurements obtained by analyzing the dissociation phase at an increased flow rate (40 μl/min). Sensorgrams were analyzed with the BIAevaluation 2.1 program (Pharmacia). Residual Fab was removed after each measurement with 10 mM HCl, 2 mM CaCl₂ and 1 mM MgCl₂.

integrin αVβ5 = target: T3, integrin αVβ5 (human, UniProt P06756 31-1048; P18084 24-799); assay: ELISA on coated integrin, detection with goat anti-human IgG alkaline phosphatase
T3 construct: mature
T3 sequence (P18084 24-799, chain 2 of 2, one chain of several): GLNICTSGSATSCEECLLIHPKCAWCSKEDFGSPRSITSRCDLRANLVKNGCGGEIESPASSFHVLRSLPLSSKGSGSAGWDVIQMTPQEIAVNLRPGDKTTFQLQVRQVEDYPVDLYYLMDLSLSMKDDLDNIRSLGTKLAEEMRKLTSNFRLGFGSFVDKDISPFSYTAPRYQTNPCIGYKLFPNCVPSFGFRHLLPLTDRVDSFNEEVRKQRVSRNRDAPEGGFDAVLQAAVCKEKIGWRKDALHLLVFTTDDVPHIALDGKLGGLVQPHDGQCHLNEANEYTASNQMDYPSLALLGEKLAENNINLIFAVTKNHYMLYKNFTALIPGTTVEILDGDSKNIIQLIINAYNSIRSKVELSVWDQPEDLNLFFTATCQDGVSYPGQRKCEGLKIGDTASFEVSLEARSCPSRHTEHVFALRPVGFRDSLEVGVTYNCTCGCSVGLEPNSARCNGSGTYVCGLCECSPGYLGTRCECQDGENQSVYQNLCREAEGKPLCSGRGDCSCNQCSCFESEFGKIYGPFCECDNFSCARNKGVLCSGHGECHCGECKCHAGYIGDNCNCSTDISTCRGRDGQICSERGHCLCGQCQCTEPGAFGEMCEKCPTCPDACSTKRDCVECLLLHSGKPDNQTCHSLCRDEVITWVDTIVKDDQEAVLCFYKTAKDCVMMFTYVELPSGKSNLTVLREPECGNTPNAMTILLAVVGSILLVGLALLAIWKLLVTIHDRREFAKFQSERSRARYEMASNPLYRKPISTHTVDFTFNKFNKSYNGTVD
Method: Specifically, binding specificity was assessed by measuring binding to αIIbβ₃, the major integrin expressed on platelets, and to αVβ₅ an integrin found prevalent on endothelial cells and connective tissue cell types.
Antibody binding activity was assessed by ELISA using a goat anti-human IgG-alkaline phosphatase conjugate.

integrin αVβ3 [8] = target: T2, integrin αVβ3; assay: ELISA screen of the position 49 library (target printed αvβ5 here, αvβ3 in paragraph 179)

- fold enhanced binding over LM609 grafted antibody (integrin αVβ3 [4]): > 3 fold
B3: LM609 grafted antibody variant W29 (Fab, V domains shown)
VH: QVQLVESGGGVVQPGRSLRLSCAASGFTWSSYDMSWVRQAPGKGLEWVAKVSSGGGSTYYLDTVQGRFTISRDNSKNTLYLQMNSLRAEDTAVYYCARHNYGSFAYWGQGTTVTVSS
VL: EIVLTQSPATLSLSPGERATLSCQASQSISNHLHWYQQRPGQAPRLLIRYRSQSISGIPARFSGSGSGTDFTLTISSLEPEDFAVYYCQQSGSWPHTFGGGTKVEIK
notes: Fab

- binding result (integrin αVβ5): no binding (tested: about 2000 ng/ml)
B6: Vitaxin (antibody, V domains shown)
VH: QVQLVESGGGVVQPGRSLRLSCAASGFTFSSYDMSWVRQAPGKGLEWVAKVSSGGGSTYYLDTVQGRFTISRDNSKNTLYLQMNSLRAEDTAVYYCARHNYGSFAYWGQGTTVTVSS
VL: EIVLTQSPATLSLSPGERATLSCQASQSISNHLHWYQQRPGQAPRLLIKYRSQSISGIPARFSGSGSGTDFTLTISSLEPEDFAVYYCQQSGSWPHTFGGGTKVEIK
notes: also called huLM609M13 1135-4; grafted LM609

- fold enhanced binding over LM609 grafted antibody (integrin αVβ3 [4]): > 3 fold
B7: LM609 grafted antibody variant T92 (Fab, V domains shown)
VH: QVQLVESGGGVVQPGRSLRLSCAASGFTFSSYDMSWVRQAPGKGLEWVAKVSSGGGSTYYLDTVQGRFTISRDNSKNTLYLQMNSLRAEDTAVYYCARHNYGSFAYWGQGTTVTVSS
VL: EIVLTQSPATLSLSPGERATLSCQASQSISNHLHWYQQRPGQAPRLLIRYRSQSISGIPARFSGSGSGTDFTLTISSLEPEDFAVYYCQQSTSWPHTFGGGTKVEIK
notes: Fab

- fold enhanced binding over LM609 grafted antibody (integrin αVβ3 [4]): > 3 fold
B8: LM609 grafted antibody variant T27 (Fab, V domains shown)
VH: QVQLVESGGGVVQPGRSLRLSCAASGTTFSSYDMSWVRQAPGKGLEWVAKVSSGGGSTYYLDTVQGRFTISRDNSKNTLYLQMNSLRAEDTAVYYCARHNYGSFAYWGQGTTVTVSS
VL: EIVLTQSPATLSLSPGERATLSCQASQSISNHLHWYQQRPGQAPRLLIRYRSQSISGIPARFSGSGSGTDFTLTISSLEPEDFAVYYCQQSGSWPHTFGGGTKVEIK
notes: Fab

- Kd (integrin αVβ3 [7]): 0.9 nM
B9: enhanced LM609 grafted antibody clone 2236-38/6H6LH (Fab, V domains shown)
VH: QVQLVESGGGVVQPGRSLRLSCAASGFTFSSYDMSWVRQAPGKGLEWVAKVSSGGGSTYYPDTVQGRFTISRDNSKNTLYLQMNSLRAEDTAVYYCARHLHGSFASWGQGTTVTVSS
VL: EIVLTQSPATLSLSPGERATLSCQASQSISNFLHWYQQRPGQAPRLLIRYRSQSISGIPARFSGSGSGTDFTLTISSLEPEDFAVYYCQQSGSWPLTFGGGTKVEIK

- binding result (integrin αVβ3 [8]): binds
B10: LM609 grafted antibody clone with Met at position 49 of the light chain (Fab, V domains shown)
VH: QVQLVESGGGVVQPGRSLRLSCAASGFTFSSYDMSWVRQAPGKGLEWVAKVSSGGGSTYYLDTVQGRFTISRDNSKNTLYLQMNSLRAEDTAVYYCARHNYGSFAYWGQGTTVTVSS
VL: EIVLTQSPATLSLSPGERATLSCQASQSISNHLHWYQQRPGQAPRLLIMYRSQSISGIPARFSGSGSGTDFTLTISSLEPEDFAVYYCQQSGSWPHTFGGGTKVEIK
notes: From the library of 19 non-donor residues at light chain position 49

The next lines start with the binder.

B1: LM609 grafted antibody combinatorial clone V357D (Fab)
chain 1: QVQLVESGGGVVQPGRSLRLSCAASGFTFSSYDMSWVRQAPGKGLEWVAKVSSGGGSTYYLDTVQGRFTISRDNSKNTLYLQMNSLRAEDTAVYYCARHNYGSFADWGQGTTVTVSS
chain 2: EIVLTQSPATLSLSPGERATLSCQASQSISNFLHWYQQRPGQAPRLLIRYRSQSISGIPARFSGSGSGTDFTLTISSLEPEDFAVYYCQQSGSWPHTFGGGTKVEIK
modifications: not checked
- fold slower dissociation rate [1]: > 10 fold
- fold enhanced affinity over parent LM609 grafted antibody [2]: > 50 fold
- Kd [3]: 0.5 nM
- koff [3]: 0.00014 s⁻¹
- kon [3]: 279000 M⁻¹ s⁻¹

B2: LM609 grafted antibody variant S51 (Fab, V domains shown)
VH: QVQLVESGGGVVQPGRSLRLSCAASGFTFSSYDMSWVRQAPGKGLEWVAKVSSGGGSTYYLDTVQGRFTISRDNSKNTLYLQMNSLRAEDTAVYYCARHNYGSFAYWGQGTTVTVSS
VL: EIVLTQSPATLSLSPGERATLSCQASQSISNHLHWYQQRPGQAPRLLIRYSSQSISGIPARFSGSGSGTDFTLTISSLEPEDFAVYYCQQSGSWPHTFGGGTKVEIK
notes: Fab
- fold enhanced binding over LM609 grafted antibody (integrin αVβ3 [4]): > 3 fold

B4: LM609 grafted antibody combinatorial clone C59 (Fab, V domains shown)
VH: QVQLVESGGGVVQPGRSLRLSCAASGFTFSSYDMSWVRQAPGKGLEWVAKVSSGGGSTYYPDTVQGRFTISRDNSKNTLYLQMNSLRAEDTAVYYCARHNYGSFADWGQGTTVTVSS
VL: EIVLTQSPATLSLSPGERATLSCQASQSISNFLHWYQQRPGQAPRLLIRYRSQSISGIPARFSGSGSGTDFTLTISSLEPEDFAVYYCQQSGSWPHTFGGGTKVEIK
notes: Fab
- fold slower dissociation rate (integrin αVβ3 [5]): > 10 fold
- IC50 (read off the curve) (integrin αVβ3 [6]): ~0.06 µg/mL

B5: LM609 grafted antibody combinatorial clone 6H6 (Fab, V domains shown)
VH: QVQLVESGGGVVQPGRSLRLSCAASGFTFSSYDMSWVRQAPGKGLEWVAKVSSGGGSTYYLDTVQGRFTISRDNSKNTLYLQMNSLRAEDTAVYYCARHNHGSFASWGQGTTVTVSS
VL: EIVLTQSPATLSLSPGERATLSCQASQSISNHLHWYQQRPGQAPRLLIRYRSQSISGIPARFSGSGSGTDFTLTISSLEPEDFAVYYCQQSGSWPLTFGGGTKVEIK
notes: Fab
- fold slower dissociation rate (integrin αVβ3 [5]): > 10 fold
- Kd (integrin αVβ3 [7]): 0.62 nM

B11: LM609 grafted antibody variant Q96 (Fab, V domains shown)
VH: QVQLVESGGGVVQPGRSLRLSCAASGFTFSSYDMSWVRQAPGKGLEWVAKVSSGGGSTYYLDTVQGRFTISRDNSKNTLYLQMNSLRAEDTAVYYCARHNYGSFAYWGQGTTVTVSS
VL: EIVLTQSPATLSLSPGERATLSCQASQSISNHLHWYQQRPGQAPRLLIRYRSQSISGIPARFSGSGSGTDFTLTISSLEPEDFAVYYCQQSGSWPQTFGGGTKVEIK
notes: Fab
- fold enhanced binding over LM609 grafted antibody (integrin αVβ3 [4]): > 3 fold
